# Results taken from IntAct's records for PubMed 35512704.
# B1: Mothers against decapentaplegic homolog 4 (Homo sapiens), Q13485 (parent)
# chain: MDNMSITNTPTSNDACLSIVHSLMCHRQGGESETFAKRAIESLVKKLKEKKDELDSLITAITTNGAHPSKCVTIQRTLDGRLQVAGRKGFPHVIYARLWRWPDLHKNELKHVKYCQYAFDLKCDSVCVNPYHYERVVSPGIDLSGLTLQSNAPSSMMVKDEYVHDFEGQPSLSTEGHSIQTIQHPPSNRASTETYSTPALLAPSESNATSTANFPNIPVASTSQPASILGGSHSEGLLQIASGPQPGQQQNGFTGQPATYHHNSTTTWTGSRTAPYTPNLPHHQNGHLQHHPPMPPHPGHYWPVHNELAFQPPISNHPAPEYWCSIAYFEMDVQVGETFKVPSSCPIVTVDGYVDPSGGDRFCLGQLSNVHRTEAIERARLHIGKGVQLECKGEGDVWVRCLSDHAVFVQSYYLDREAGRAPGDAVHKIYPSAYIKVFDLRQCHRQMQQQAATAQAAAAAQAAAVAGNIPGPGSVGGIAPAISLSAAAGIGVDDLRRLCILRMSFVKGWGPDYPRQSIKETPCWIEIHLHRALQLLDEVLHTMPIADPQPLD
# partner: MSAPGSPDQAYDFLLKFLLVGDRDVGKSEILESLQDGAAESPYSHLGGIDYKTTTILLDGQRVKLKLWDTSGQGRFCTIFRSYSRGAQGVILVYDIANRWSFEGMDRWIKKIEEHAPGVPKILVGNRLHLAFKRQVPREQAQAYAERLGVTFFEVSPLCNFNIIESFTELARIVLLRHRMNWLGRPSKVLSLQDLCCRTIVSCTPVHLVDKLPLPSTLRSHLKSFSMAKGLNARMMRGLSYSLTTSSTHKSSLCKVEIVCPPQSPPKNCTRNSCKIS
# B2: Mothers against decapentaplegic homolog 4 (Homo sapiens), Q13485 (parent)
# chain: B1 chain
# partner: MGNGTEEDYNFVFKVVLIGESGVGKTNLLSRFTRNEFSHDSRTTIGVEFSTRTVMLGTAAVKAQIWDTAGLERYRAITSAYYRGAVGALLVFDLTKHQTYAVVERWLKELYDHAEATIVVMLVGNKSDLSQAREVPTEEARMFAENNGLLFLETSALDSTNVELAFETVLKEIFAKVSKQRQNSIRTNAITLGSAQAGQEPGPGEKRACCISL
# B3: Mothers against decapentaplegic homolog 4 (Homo sapiens), Q13485 (parent)
# chain: B1 chain
# partner: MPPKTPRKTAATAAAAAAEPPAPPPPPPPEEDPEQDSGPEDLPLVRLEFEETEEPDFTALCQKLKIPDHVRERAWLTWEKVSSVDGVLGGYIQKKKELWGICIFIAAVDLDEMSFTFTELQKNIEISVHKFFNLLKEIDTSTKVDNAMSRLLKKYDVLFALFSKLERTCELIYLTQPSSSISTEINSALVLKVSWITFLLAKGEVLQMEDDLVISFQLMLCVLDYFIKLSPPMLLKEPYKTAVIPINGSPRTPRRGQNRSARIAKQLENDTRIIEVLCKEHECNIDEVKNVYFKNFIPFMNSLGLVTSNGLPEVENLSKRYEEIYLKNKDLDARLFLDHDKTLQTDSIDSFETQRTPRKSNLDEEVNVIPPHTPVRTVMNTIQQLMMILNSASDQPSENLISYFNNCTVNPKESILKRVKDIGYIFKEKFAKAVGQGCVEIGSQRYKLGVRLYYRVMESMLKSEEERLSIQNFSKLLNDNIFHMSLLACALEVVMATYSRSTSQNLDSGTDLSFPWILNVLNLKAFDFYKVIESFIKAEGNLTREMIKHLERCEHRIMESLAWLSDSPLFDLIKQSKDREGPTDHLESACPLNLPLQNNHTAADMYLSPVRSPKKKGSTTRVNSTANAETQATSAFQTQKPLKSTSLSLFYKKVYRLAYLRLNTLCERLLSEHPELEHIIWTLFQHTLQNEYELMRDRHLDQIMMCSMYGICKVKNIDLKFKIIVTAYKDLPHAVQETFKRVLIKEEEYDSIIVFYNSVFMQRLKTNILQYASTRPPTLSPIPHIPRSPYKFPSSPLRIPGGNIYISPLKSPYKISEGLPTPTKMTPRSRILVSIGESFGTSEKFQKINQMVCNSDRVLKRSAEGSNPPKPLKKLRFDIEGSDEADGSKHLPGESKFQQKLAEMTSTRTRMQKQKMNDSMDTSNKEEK
# B4: Mothers against decapentaplegic homolog 4 (Homo sapiens), Q13485 (parent)
# chain: B1 chain
# partner: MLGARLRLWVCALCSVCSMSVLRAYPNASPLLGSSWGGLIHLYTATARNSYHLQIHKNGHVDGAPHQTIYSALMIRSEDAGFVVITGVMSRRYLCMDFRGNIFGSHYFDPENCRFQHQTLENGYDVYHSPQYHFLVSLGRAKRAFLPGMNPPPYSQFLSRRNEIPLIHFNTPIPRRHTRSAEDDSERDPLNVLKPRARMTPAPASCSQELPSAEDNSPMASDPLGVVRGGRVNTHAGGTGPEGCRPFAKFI
# B5: Mothers against decapentaplegic homolog 4 (Homo sapiens), Q13485 (parent)
# chain: B1 chain
# partner: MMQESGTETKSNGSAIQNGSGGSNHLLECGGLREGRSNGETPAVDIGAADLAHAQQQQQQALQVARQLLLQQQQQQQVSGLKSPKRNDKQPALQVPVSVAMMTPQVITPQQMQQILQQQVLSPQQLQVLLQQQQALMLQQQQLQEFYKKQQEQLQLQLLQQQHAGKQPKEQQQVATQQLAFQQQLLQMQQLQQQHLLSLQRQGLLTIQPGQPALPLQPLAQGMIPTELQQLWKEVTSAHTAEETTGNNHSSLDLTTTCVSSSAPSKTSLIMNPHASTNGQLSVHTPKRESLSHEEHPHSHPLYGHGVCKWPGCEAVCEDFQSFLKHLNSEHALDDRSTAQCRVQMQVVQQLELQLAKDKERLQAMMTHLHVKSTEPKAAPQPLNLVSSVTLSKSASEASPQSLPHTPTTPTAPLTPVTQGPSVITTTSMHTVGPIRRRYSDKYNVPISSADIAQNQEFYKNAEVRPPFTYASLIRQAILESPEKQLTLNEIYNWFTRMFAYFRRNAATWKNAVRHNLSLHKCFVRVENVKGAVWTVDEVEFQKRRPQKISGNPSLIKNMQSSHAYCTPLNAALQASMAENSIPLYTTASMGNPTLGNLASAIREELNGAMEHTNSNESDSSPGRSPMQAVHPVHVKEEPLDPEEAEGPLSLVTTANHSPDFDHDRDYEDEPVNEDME
# B6: Mothers against decapentaplegic homolog 4 (Homo sapiens), Q13485 (parent)
# chain: B1 chain
# partner: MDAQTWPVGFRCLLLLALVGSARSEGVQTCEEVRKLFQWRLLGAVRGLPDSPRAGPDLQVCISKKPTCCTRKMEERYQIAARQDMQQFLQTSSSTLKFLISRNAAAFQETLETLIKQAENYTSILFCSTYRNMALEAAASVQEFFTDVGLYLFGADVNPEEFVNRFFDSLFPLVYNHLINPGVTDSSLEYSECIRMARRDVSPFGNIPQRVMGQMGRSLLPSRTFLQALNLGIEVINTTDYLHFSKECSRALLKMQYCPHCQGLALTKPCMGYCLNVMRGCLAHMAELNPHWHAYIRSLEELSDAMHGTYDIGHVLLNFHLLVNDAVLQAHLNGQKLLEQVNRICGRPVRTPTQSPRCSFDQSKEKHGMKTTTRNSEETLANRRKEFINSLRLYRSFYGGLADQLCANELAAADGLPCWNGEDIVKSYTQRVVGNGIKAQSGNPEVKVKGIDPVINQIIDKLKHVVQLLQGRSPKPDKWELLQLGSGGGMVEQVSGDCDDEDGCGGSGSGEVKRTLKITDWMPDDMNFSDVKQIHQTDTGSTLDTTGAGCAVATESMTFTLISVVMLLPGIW
# B7: Mothers against decapentaplegic homolog 4 (Homo sapiens), Q13485 (parent)
# chain: B1 chain
# partner: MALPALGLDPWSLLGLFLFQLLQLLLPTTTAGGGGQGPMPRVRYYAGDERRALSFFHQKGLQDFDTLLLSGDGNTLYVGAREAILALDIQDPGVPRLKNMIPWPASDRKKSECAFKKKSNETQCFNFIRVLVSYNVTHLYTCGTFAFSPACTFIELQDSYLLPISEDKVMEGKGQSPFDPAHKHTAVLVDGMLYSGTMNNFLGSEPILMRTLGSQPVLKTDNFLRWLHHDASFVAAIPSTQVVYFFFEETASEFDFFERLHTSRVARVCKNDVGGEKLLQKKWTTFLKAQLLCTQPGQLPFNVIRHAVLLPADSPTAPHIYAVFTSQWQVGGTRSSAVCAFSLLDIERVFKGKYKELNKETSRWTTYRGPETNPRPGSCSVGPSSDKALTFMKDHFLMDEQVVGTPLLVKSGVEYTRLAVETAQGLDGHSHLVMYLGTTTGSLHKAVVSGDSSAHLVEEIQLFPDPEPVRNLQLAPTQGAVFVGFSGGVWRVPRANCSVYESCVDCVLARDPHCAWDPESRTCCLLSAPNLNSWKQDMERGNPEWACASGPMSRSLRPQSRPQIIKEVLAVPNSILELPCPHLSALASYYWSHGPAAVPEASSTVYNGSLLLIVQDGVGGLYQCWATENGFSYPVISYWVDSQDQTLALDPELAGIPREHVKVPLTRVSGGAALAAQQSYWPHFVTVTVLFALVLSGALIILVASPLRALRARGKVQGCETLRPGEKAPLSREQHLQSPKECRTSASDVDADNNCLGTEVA
# Variants of: B1
# Settings: with rb40a_human RAB40A
row,Variant,effect of a mutation on the interaction
1,G386D,with no effect

# Variants of: B2
# Settings: with rab25_human RAB25, P57735
row,Variant,effect of a mutation on the interaction
1,G386D,with no effect

# Variants of: B3
# Settings: with rb_human RB1, P06400
row,Variant,effect of a mutation on the interaction
1,D351H,with no effect

# Variants of: B4
# Settings: with fgf23_human FGF23, Q9GZV9
row,Variant,effect of a mutation on the interaction
1,G386D,with no effect

# Variants of: B4
# Settings: with fgf23_human FGF23, Q9GZV9
# Remark: another data set of the same source
row,Variant,effect of a mutation on the interaction
1,G386D,increasing interaction strength

# Variants of: B5
# Settings: with foxp1_human FOXP1, Q9H334
row,Variant,effect of a mutation on the interaction
1,G386D,with no effect

# Variants of: B6
# Settings: with gpc5_human GPC5, P78333
row,Variant,effect of a mutation on the interaction
1,R361C,with no effect

# Variants of: B6
# Settings: with gpc5_human GPC5, P78333
# Remark: another data set of the same source
row,Variant,effect of a mutation on the interaction
1,R361H,with no effect

# Variants of: B6
# Settings: with gpc5_human GPC5, P78333
# Remark: another data set of the same source
row,Variant,effect of a mutation on the interaction
1,G386D,with no effect

# Variants of: B6
# Settings: with gpc5_human GPC5, P78333
# Remark: another data set of the same source
row,Variant,effect of a mutation on the interaction
1,G386D,increasing interaction strength

# Variants of: B7
# Settings: with sem4a_human SEMA4A
row,Variant,effect of a mutation on the interaction
1,D351H,with no effect

# Variants of: B7
# Settings: with sem4a_human SEMA4A
# Remark: another data set of the same source
row,Variant,effect of a mutation on the interaction
1,R361H,with no effect
